Reference: patent US20250250357A1 (NANJING ZAIMING PHARMACEUTICAL, published 2025)

B1: S009-F1.25.10 (antibody, human IgG1, kappa, V domains shown)
VH: EVQLQQSGPELVKPGASLKISCKASGYSFTDYTMNWVKQSHGKNLEWIGLFNPYNGGISYNQKFKGKATLTVDKSSNTAYMELLSLTSDDSAVYFCARDGRGGFYAMDYWGQGTSVTVSS
VL: DIQMTQTTSSLSASLGDRVTISCRASQDISIYLNWYQQKPDGPVKLLIYYTSRLHSGVPSRFSGSGSGTDFSLTISNLEQEDIATYFCQQGYTLPPWTFGGGTKLEIKR
notes: human-murine chimeric antibody, human IgG1/kappa constant regions
B2: S009-F1.57.1 (antibody, human IgG1, kappa, V domains shown)
VH: EAQLQQSGAVFVKPGASVKLSCTASGFSSKDIFLHWVKQRPEQGLEWIGRIDPASDNTIYDPKFQDRATITSDRSSNTAYLQFSSLTSEDTAVYFCLYFDFWGQGTTLTVSS
VL: DIVMTQATPSISVTPGESVSISCRSSESLLHSNGNTYLYWFLQRPGQSPQLLIYRMSNLASGVPDRFSVSGSGTAFTLRISRVEAEDVGVYYCMQHLEYPLTFGAGTKLELKR
notes: as for B1
B3: S009-F1.59.1 (antibody, human IgG1, kappa, V domains shown)
VH: EVKLEGSGGGLVQPGGSMMLSCVATGFTFSSYWMNWVRQSPDRGLEWVAEIRLKSNGFAAFYAESVKGRFTISRDDSKSSVYLQMNNLRTEDTGIYYCTYFVHWGQGILVTVSE
VL: DIVLTQSPTSLAVSLGQRATISCRTSESVEYFGTILIQWYQQKPGQPPKLLIFGASNVESGVPARFSGSGSGTDFSLNIHPVEEEDIAMYFCQQNRKVPYTFGGGTTLELKR
notes: as for B1
B4: S009-F1.62.9 (antibody, human IgG1, kappa, V domains shown)
VH: EVQLQQSGADLVKPGASVKLSCTVFGLNFKDTFMHWVRQRPEQGLEWIGRIDPANDNSIYGPKFQDKATITADTSSNTAYLHLSSLTSEDTAVYYCLYFDNWGHGTTLTVSS
VL: DIVMTQAASSEPVTPGESVSISCRSDKSLLHSNGHNYLYWFLQRPGQSPHLLIYRMSNLASGVPDRFSGSGSGTAFTLRISRVEAEDVGVYYCMQHLEYPLTFGAGTKLELKR
notes: as for B1

Columns and labels:
[1] = target: T1, human MSLN protein endogenously expressed on OVCAR3 tumor cells (human, UniProt Q13421 296-598); test: FACS on OVCAR3 cells
T1 construct: whole, on cells; Endogenous target on OVCAR3 cells; kept apart from the recombinant full-length construct; also called mesothelin
Description: (§1) The desired cells were expanded to the logarithmic growth phase in a T-75 cell culture flask. […] After the cells from the previous step were subjected to cell counting, the cell pellet was resuspended to 2×10⁶ cells/mL in a blocking buffer of [PBS+2% (w/w) BSA] and added into a 96-well FACS reaction plate at 50 μL/well. A chimeric antibody (a sample to be tested) was added at 50 μL/well, and the plate was incubated on ice for 2 h. […] After the plate was centrifuged and washed 5 times with a PBST buffer, assay and analysis were performed by FACS (FACS CantoII, purchased from BD). Data analysis was performed by software (Flowjo) to obtain the mean fluorescence intensity (MFI) of the cells.

[2] = target: T2, human MSLN full-length protein (NCBI: AAH09272.1) expressed on HEK293T-hMSLN-B8 cells (human, UniProt Q13421 296-598); test: FACS on HEK293T-hMSLN-B8 cells
T2 construct: Whole encoded precursor
Description: as §1

[3] = target: T3, human MSLN-R3 protein (Met487-Ser606 of NCBI AAH09272.1) expressed on HEK293T-hMSLN-R3 cells (human, UniProt Q13421 487-606); test: FACS on HEK293T-hMSLN-R3 cells
T3 construct: also called Region3
T3 sequence (Q13421 495-614): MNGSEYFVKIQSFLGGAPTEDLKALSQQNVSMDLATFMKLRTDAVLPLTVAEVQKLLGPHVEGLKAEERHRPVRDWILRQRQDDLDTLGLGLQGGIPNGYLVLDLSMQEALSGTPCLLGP
Description: as §1

T1 sequence (Q13421 other isoform, or with tags, fused parts or gaps): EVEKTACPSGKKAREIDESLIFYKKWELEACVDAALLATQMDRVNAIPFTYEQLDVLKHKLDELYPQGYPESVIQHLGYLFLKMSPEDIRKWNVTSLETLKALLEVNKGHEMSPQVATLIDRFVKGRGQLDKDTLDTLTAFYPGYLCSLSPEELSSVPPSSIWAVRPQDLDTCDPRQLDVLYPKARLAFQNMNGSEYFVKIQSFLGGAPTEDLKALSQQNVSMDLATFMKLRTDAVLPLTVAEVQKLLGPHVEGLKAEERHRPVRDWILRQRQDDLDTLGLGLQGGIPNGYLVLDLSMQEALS
T2 sequence (Q13421 other isoform, or with tags, fused parts or gaps limits assumed): as the sequence (Q13421 other isoform, or with tags, fused parts or gaps) above, with R14P counted along it

Binder | Maximum mean fluorescence intensity [1] | Maximum mean fluorescence intensity [2] | EC50 [3] [nM] | Maximum mean fluorescence intensity [3]
B1 | 429 | 41900 | 1.44 | 6260
B2 | 948 | 8750 | 3.9 | 6660
B3 | 445 | 32800 | 0.31 | 7070
B4 | 425 | 9550 | 0.95 | 6930
